Results published in US20140323392A1 (UNIVERSITY OF UTAH RESEARCH FOUNDATION, published 2014).
Read-outs that look alike come from different tables or passages of the source. Bridges are numbered along the chain shown (N, C = ends). Roman numbers before positions name the chains, in order. Where no end group is shown, it is not given here. [ ]: non-standard residue; d: D form.

Legend:
Assay in all cases: cell-based or functional assay
[1] = biological target: T1, HIV-1 HXB2 envelope glycoprotein gp41 (N-trimer of the prehairpin intermediate) (HIV-1 strain HXB2, UniProt P04578 512-856)
[2] = biological target: T1, HIV-1 HXB2 envelope glycoprotein gp41 …; remark: listed apart in the source
[3] = biological target: T1, HIV-1 HXB2 envelope glycoprotein gp41 …; remark: listed apart in the source
[4] = biological target: T2, HIV-1 JRFL envelope glycoprotein gp41 (N-trimer of the prehairpin intermediate) (HIV-1 strain JRFL)
[5] = biological target: T3, HIV-1 HXB2 envelope glycoprotein gp41 with resistance mutation Q577R (HIV-1 strain HXB2, UniProt P04578 33-856)
[6] = biological target: T4, HIV-1 HXB2 envelope glycoprotein gp41 with resistance mutations E560K/V570I (HIV-1 strain HXB2, UniProt P04578 33-856)
[7] = biological target: T2, HIV-1 JRFL envelope glycoprotein gp41 …; remark: listed apart in the source
[8] = biological target: T1, HIV-1 HXB2 envelope glycoprotein gp41 …; remark: listed apart in the source
[9] = biological target: T3, HIV-1 HXB2 envelope glycoprotein gp41 …; remark: listed apart in the source
[10] = biological target: T4, HIV-1 HXB2 envelope glycoprotein gp41 …; remark: listed apart in the source
[11] = biological target: T2, HIV-1 JRFL envelope glycoprotein gp41 …; remark: listed apart in the source
[12] = biological target: T1, HIV-1 HXB2 envelope glycoprotein gp41 …; remark: listed apart in the source

Row | Binder | IC50, HXB2 pseudovirion entry [2] | IC50, JRFL pseudovirion entry [4] | IC50, HXB2 pseudovirion entry [12] | other results
1 | Ac-[dK]G[dA][dC][dD][dY][dP][dE][dW][dR][dW][dL][dC][dA][dA][dA]-NH2 (disulfide 4-13 (inferred); also: dimer, Lys crosslinked by PEG) [PEG-(PIE2-AAA)2] | – | – | – | IC50, pseudovirion entry [1]: 21 nM; fold improvement of IC50 over the corresponding monomer [1]: ~70 fold
2 | Ac-[dH][dP][dC][dD][dY][dP][dE][dW][dQ][dW][dL][dC][dE][dL]GK-NH2 (disulfide 3-12 (inferred); not fully specified (residue 16)) [Chol-PEG2-PIE12 (monomer)] | 69 nM | – | – | IC50, HXB2 pseudovirion entry [3]: 58 nM
3 | C5C-PIE12-trimer (disulfide I:3-I:12, II:3-II:12 (inferred); also: trimer: C-terminal Lys linked by PEG5 spacers) peptide 1: Ac-[dH][dP][dC][dD][dY][dP][dE][dW][dQ][dW][dL][dC][dE][dL]G[dK]-NH2 peptide 2: Ac-[dH][dP][dC][dD][dY][dP][dE][dW][dQ][dW][dL][dC][dE][dL]G[dK][dK]-NH2 | – | 2.8 nM | – | IC50, HXB2 pseudovirion entry [3]: 0.33 nM; IC50, Q577R HXB2 pseudovirion entry [5]: 2960 nM; IC50, E560K/V570I HXB2 pseudovirion entry [6]: 0.84 nM; IC50, JRFL pseudovirion entry [7]: 2.8 nM
4 | [dC][dD][dY][dP][dE][dW][dQ][dW][dL][dC][dE][dL]GK (disulfide 1-10 (inferred); not fully specified (residue 14); also: homotrimer on trimethylolethane-triNHS ester scaffold) [PEG4-ΔHP-PIE12-trimer] | 300 nM | – | – | –
5 | Ac-[dH][dP][dC][dD][dY][dP][dE][dW][dQ][dW][dL][dC][dE][dL]GK-NH2 (disulfide 3-12 (inferred); not fully specified (residue 16); also: trimer on scaffold via PEG4, fourth arm PEG36 (PEG24 + PEG12 through D-Cys) carrying thiocholesterol) [Chol-PEG36-PIE12-trimer] | – | – | – | IC50, HXB2 pseudovirion entry [3]: 0.0054 nM; IC50, Q577R HXB2 pseudovirion entry [5]: 2.7 nM; IC50, E560K/V570I HXB2 pseudovirion entry [6]: 0.0045 nM
6 | [dC][dD][dY][dP][dE][dW][dQ][dW][dL][dC][dE][dL]GK (disulfide 1-10 (inferred); not fully specified (residue 14); also: homotrimer on trimethylolethane-triNHS ester scaffold) [PEG5-ΔHP-PIE12-trimer] | 380 nM | – | – | –
7 | Ac-[dH][dP][dC][dD][dY][dP][dE][dW][dQ][dW][dL][dC][dE][dL]GK-NH2 (disulfide 3-12 (inferred); not fully specified (residue 16)) [Chol-PEG24-PIE12 (monomer)] | 0.64 nM | – | – | IC50, HXB2 pseudovirion entry [3]: 0.4 nM
8 | [dC][dD][dY][dP][dE][dW][dQ][dW][dL][dC][dE][dL]G[dK] (disulfide 1-10 (inferred)) [ΔHP-PIE12] | 3100 nM | – | – | fold loss of potency against PIE12 [1]: 84 fold
9 | Ac-[dH][dP][dC][dD][dY][dP][dE][dW][dQ][dW][dL][dC][dE][dL]GK-NH2 (disulfide 3-12 (inferred); not fully specified (residue 16); also: homotrimer on trimethylolethane-triNHS ester scaffold) [PEG4-PIE12-trimer] | 0.72 nM | – | – | IC50, antiviral potency, WT HXB2 [8]: 0.72 nM; IC50, antiviral potency, Q577R (HXB2 background) [9]: > 3000 nM; IC50, antiviral potency, E560K/V570I (HXB2 background) [10]: 0.89 nM; IC50, JRFL pseudovirion entry [11]: 2.1 nM
10 | Ac-G[dA][dC][dD][dY][dP][dE][dW][dQ][dW][dL][dC][dA][dA]G[dK]-NH2 (disulfide 3-12 (inferred); also: linked directly to trifunctional crosslinker TSAT) [PIE7-GK short claw] | – | 86.6 nM | 0.23 nM | –
11 | C5C(PIE7-GK)3 (disulfide I:3-I:12, II:3-II:12 (inferred); also: trimer: C-terminal Lys linked by PEG5 spacers) peptide 1: Ac-G[dA][dC][dD][dY][dP][dE][dW][dQ][dW][dL][dC][dA][dA]G[dK]-NH2 peptide 2: Ac-G[dA][dC][dD][dY][dP][dE][dW][dQ][dW][dL][dC][dA][dA]G[dK][dK]-NH2 | – | 6.7 nM | 0.13 nM | –
12 | Ac-[dK]G[dA][dC][dD][dY][dP][dE][dW][dQ][dW][dL][dC][dA][dA]-NH2 (disulfide 4-13 (inferred); also: trimer linked by PEG9 spacers) [N9N(PIE7)3] | – | 220 nM | 0.25 nM | –
13 | Ac-[dK]G[dA][dC][dD][dY][dP][dE][dW][dQ][dW][dL][dC][dA][dA]-NH2 (disulfide 4-13 (inferred); also: dimer linked N- to C-terminal by zero-length spacer) [N0C(PIE7)2] | – | 400 nM | 0.53 nM | –
14 | Ac-G[dA][dC][dD][dY][dP][dE][dW][dQ][dW][dL][dC][dA][dA]G[dK]-NH2 (disulfide 3-12 (inferred); also: linked to trifunctional crosslinker LC-TSAT) [PIE7-GK long claw] | – | 20.6 nM | 0.12 nM | –
15 | Ac-[dH][dP][dC][dD][dY][dP][dE][dW][dQ][dW][dL][dC][dE][dL]G[dK]-NH2 (disulfide 3-12 (inferred)) [PIE12] | – | 578 nM | – | IC50, JRFL pseudovirion entry [7]: 580 nM
16 | Ac-[dK]G[dA][dC][dD][dY][dP][dE][dW][dQ][dW][dL][dC][dA][dA]-NH2 (disulfide 4-13 (inferred); also: dimer, N- to N-terminal Lys crosslinked by Bis-dPEG9 NHS ester) [N9N(PIE7)2] | – | 2300 nM | 1.9 nM | fold improvement of IC50 over the corresponding monomer [1]: ~325 fold
17 | C0C(PIE7-GK)3 (disulfide I:3-I:12, II:3-II:12 (inferred); also: trimer, C-terminal Lys residues linked by zero length spacers) peptide 1: Ac-G[dA][dC][dD][dY][dP][dE][dW][dQ][dW][dL][dC][dA][dA]G[dK]-NH2 peptide 2: Ac-G[dA][dC][dD][dY][dP][dE][dW][dQ][dW][dL][dC][dA][dA]G[dK][dK]-NH2 | – | 16.1 nM | 0.12 nM | –
18 | Ac-[dH][dP][dC][dD][dY][dP][dE][dW][dQ][dW][dL][dC][dE][dL]GK-NH2 (disulfide 3-12 (inferred); not fully specified (residue 16)) [Chol-PEG12-PIE12 (monomer)] | 12 nM | – | – | IC50, HXB2 pseudovirion entry [3]: 11 nM; IC50, JRFL pseudovirion entry [7]: 200 nM
